A short description of the data set: total protein half-life in vivo (active degradation + dilution); higher = more stable protein.
The mark [1] stands for this setting: E. coli NCM3722 delta-clpP delta-lon delta-hslV, growth: N-lim chemostat, doubling time 6 h.
[2] abbreviates: E. coli NCM3722 delta-clpP, growth: N-lim chemostat, doubling time 6 h.
Setting [3] is: E. coli NCM3722 delta-hslV, growth: N-lim chemostat, doubling time 6 h.
Where [4] appears, read: E. coli NCM3722 delta-lon, growth: N-lim chemostat, doubling time 6 h.
Where [5] appears, read: E. coli NCM3722 delta-smpB, growth: N-lim chemostat, doubling time 6 h.
Where [6] appears, read: wild type E. coli NCM3722, growth: C-lim chemostat, doubling time 3 h.
Where [7] appears, read: wild type E. coli NCM3722, growth: C-lim chemostat, doubling time 6 h.
Setting [8] is: wild type E. coli NCM3722, growth: C-lim chemostat, doubling time 12 h.
The mark [9] stands for this setting: wild type E. coli NCM3722, growth: N-lim chemostat, doubling time 6 h.
Where [10] appears, read: wild type E. coli NCM3722, growth: N-lim chemostat, doubling time 12 h.
Where [11] appears, read: wild type E. coli NCM3722, growth: P-lim chemostat, doubling time 6 h.
Setting [12] is: wild type E. coli NCM3722, growth: P-lim chemostat, doubling time 12 h.

± gives the standard deviation of the averaged measurements.

Turning to “MNRIEHYHDWLRDAHAMEKQAESMLESMASRIDNYPELRARIEQHLSETKNQIVQLETILDRNDISRSVIKDSMSKMAALGQSIGGIFPSDEIVKGSISGYVFEQFEIACYTSLLAAAKNAGDTASIPTIEAILNEEKQMADWLIQNIPQTTEKFLIRSETDGVEAKK”, the “total protein half-life in vivo” value reads like this: under setting [1], 4.867 ± 0.043 h; under setting [2], 4.24 ± 0.64 h; under setting [3], 6.68 ± 0.67 h; under setting [4], 4.5 ± 0.39 h; under setting [5], 3.94 ± 0.3 h; under setting [6], 3.17 ± 0.17 h. The “total protein half-life in vivo” value reads like this: under setting [7], 5.22 ± 0.1 h; under setting [8], 10.5 ± 1.5 h; under setting [9], 4.14 ± 0.32 h; under setting [10], 6.67 ± 0.1 h; under setting [11], 5.2 ± 0.7 h; under setting [12], 11.1 ± 0.76 h.
On to “MDKKQVTDLRSELLDSRFGAKSISTIAESKRFPLHEMRDDVAFQIINDELYLDGNARQNLATFCQTWDDENVHKLMDLSINKNWIDKEEYPQSAAIDLRCVNMVADLWHAPAPKNGQAVGTNTIGSSEACMLGGMAMKWRWRKRMEAAGKPTDKPNLVCGPVQICWHKFARYWDVELREIPMRPGQLFMDPKRMIEACDENTIGVVPTFGVTYTGNYEFPQPLHDALDKFQADTGIDIDMHIDAASGGFLAPFVAPDIVWDFRLPRVKSISASGHKFGLAPLGCGWVIWRDEEALPQELVFNVDYLGGQIGTFAINFSRPAGQVIAQYYEFLRLGREGYTKVQNASYQVAAYLADEIAKLGPYEFICTGRPDEGIPAVCFKLKDGEDPGYTLYDLSERLRLRGWQVPAFTLGGEATDIVVMRIMCRRGFEMDFAELLLEDYKASLKYLSDHPKLQGIAQQNSFKHT”, for which the “total protein half-life in vivo” value is, setting by setting: under setting [1], 6.14 ± 0.21 h; under setting [2], 6.13 ± 0.6 h; under setting [4], 6.24 ± 0.063 h; under setting [5], 5.24 ± 0.19 h; under setting [6], 3.41 h; under setting [7], 6.25 ± 0.14 h. The “total protein half-life in vivo” value under setting [9] worked out at 5.7107 ± 0.00073 h, the “total protein half-life in vivo” value under setting [10] stood at 10.9 ± 0.24 h, the “total protein half-life in vivo” value under setting [11] was found to be 5.97 ± 0.86 h and the “total protein half-life in vivo” value under setting [12] is 13.1 ± 0.33 h.
On to “MNISSLRKAFIFMGAVAALSLVNAQSALAANESAKDMTCQEFIDLNPKAMTPVAWWMLHEETVYKGGDTVTLNETDLTQIPKVIEYCKKNPQKNLYTFKNQASNDLPN [P0AET2]”, for which the “total protein half-life in vivo” value under setting [2] is more than 8 h.
With “MKKVVTVCPYCASGCKINLVVDNGKIVRAEAAQGKTNQGTLCLKGYYGWDFINDTQILTPRLKTPMIRRQRGGKLEPVSWDEALNYVAERLSAIKEKYGPDAIQTTGSSRGTGNETNYVMQKFARAVIGTNNVDCCARVUHGPSVAGLHQSVGNGAMSNAINEIDNTDLVFVFGYNPADSHPIVANHVINAKRNGAKIIVCDPRKIETARIADMHIALKNGSNIALLNAMGHVIIEENLYDKAFVASRTEGFEEYRKIVEGYTPESVEDITGVSASEIRQAARMYAQAKSAAILWGMGVTQFYQGVETVRSLTSLAMLTGNLGKPHAGVNPVRGQNNVQGACDMGALPDTYPGYQYVKDPANREKFAKAWGVESLPAHTGYRISELPHRAAHGEVRAAYIMGEDPLQTDAELSAVRKAFEDLELVIVQDIFMTKTASAADVILPSTSWGEHEGVFTAADRGFQRFFKAVEPKWDLKTDWQIISEIATRMGYPMHYNNTQEIWDELRHLCPDFYGATYEKMGELGFIQWPCRDTSDADQGTSYLFKEKFDTPNGLAQFFTCDWVAPIDKLTDEYPMVLSTVREVGHYSCRSMTGNCAALAALADEPGYAQINTEDAKRLGIEDEALVWVHSRKGKIITRAQVSDRPNKGAIYMTYQWWIGACNELVTENLSPITKTPEYKYCAVRVEPIADQRAAEQYVIDEYNKLKTRLREAALA”, the “total protein half-life in vivo” value under setting [1] worked out at 4.17 ± 0.28 h.
“MNKSLVAVGVIVALGVVWTGGAWYTGKKIETHLEDMVAQANAQLKLTAPESNLEVSYQNYHRGVFSSQLQLLVKPIAGKENPWIKSGQSVIFNESVDHGPFPLAQLKKLNLIPSMASIQTTLVNNEVSKPLFDMAKGETPFEINSRIGYSGDSSSDISLKPLNYEQKDEKVAFSGGEFQLNADRDGKAISLSGEAQSGRIDAVNEYNQKVQLTFNNLKTDGSSTLASFGERVGNQKLSLEKMTISVEGKELALLEGMEISGKSDLVNDGKTINSQLDYSLNSLKVQNQDLGSGKLTLKVGQIDGEAWHQFSQQYNAQTQALLAQPEIANNPELYQEKVTEAFFSALPLMLKGDPVITIAPLSWKNSQGESALNLSLFLKDPATTKEAPQTLAQEVDRSVKSLDAKLTIPVDMATEFMTQVAKLEGYQEDQAKKLAKQQVEGASAMGQMFRLTTLQDNTITTSLQYANGQITLNGQKMSLEDFVGMFAMPALNVPAVPAIPQQ”: the “total protein half-life in vivo” value came to 6.64 ± 0.32 h under setting [1]; 6.77 ± 0.68 h under setting [2]; 6.24 ± 0.28 h under setting [3]; 6.136 ± 0.016 h under setting [4]; 6 ± 0.23 h under setting [5]; 3.14 ± 0.049 h under setting [6]. Further, the “total protein half-life in vivo” value is, setting by setting: under setting [7], 5.99 ± 0.08 h; under setting [8], 11.8 ± 1.2 h; under setting [9], 6.21 ± 0.15 h; under setting [10], 13.15 ± 0.042 h; under setting [11], 5.98 ± 0.13 h; under setting [12], 12.9 ± 0.87 h.
For the sequence “MIIHFTLNGAPQELTVNPGENVQKLLFNMGMHSVRNSDDGFGFAGSDAIIFNGNIVNASLLIAAQLEKADIRTAESLGKWNELSLVQQAMVDVGVVQSGYNDPAAALIITDLLDRIAAPTREEIDDALSGLFSRDAGWQQYYQVIELAVARKNNPQATIDIAPTFRDDLEVIGKHYPKTDAAKMVQAKPCYVEDRVTADACVIKMLRSPHAHALITHLDVSKAEALPGVVHVITHLNCPDIYYTPGGQSAPEPSPLDRRMFGKKMRHVGDRVAAVVAESEEIALEALKLIDVEYEVLKPVMSIDEAMAEDAPVVHDEPVVYVAGAPDTLEDDNSHAAQRGEHMIINFPIGSRPRKNIAASIHGHIGDMDKGFADADVIIERTYNSTQAQQCPTETHICFTRMDGDRLVIHASTQVPWHLRRQVARLVGMKQHKVHVIKERVGGGFGSKQDILLEEVCAWATCVTGRPVLFRYTREEEFIANTSRHVAKVTVKLGAKKDGRLTAVKMDFRANTGPYGNHSLTVPCNGPALSLPLYPCDNVDFQVTTYYSNICPNGAYQGYGAPKGNFAITMALAELAEQLQIDQLEIIERNRVHEGQELKILGAIGEGKAPTSVPSAASCALEEILRQGREMIQWSSPKPQNGDWHIGRGVAIIMQKSGIPDIDQANCMIKLESDGTFIVHSGGADIGTGLDTVVTKLAAEVLHCPPQDVHVISGDTDHALFDKGAYASSGTCFSGNAARLAAENLREKILFHGAQMLGEPVADVQLATPGVVRGKKGEVSFGDIAHKGETGTGFGSLVGTGSYITPDFAFPYGANFAEVAVNTRTGEIRLDKFYALLDCGTPVNPELALGQIYGATLRAIGHSMSEEIIYDAEGHPLTRDLRSYGAPKIGDIPRDFRAVLVPSDDKVGPFGAKSISEIGVNGAAPAIATAIHDACGIWLREWHFTPEKILTALEKI”, the “total protein half-life in vivo” value reads like this: under setting [1], more than 8 h; under setting [8], 9.16 h.
Turning to “MELIFLGTSAGVPTRTRNVTAILLNLQHPTQSGLWLFDCGEGTQHQLLHTAFNPGKLDKIFISHLHGDHLFGLPGLLCSRSMSGIIQPLTIYGPQGIREFVETALRISGSWTDYPLEIVEIGAGEILDDGLRKVTAYPLEHPLECYGYRIEEHDKPGALNAQALKAAGVPPGPLFQELKAGKTITLEDGRQINGADYLAAPVPGKALAIFGDTGPCDAALDLAKGVDVMVHEATLDITMEAKANSRGHSSTRQAATLAREAGVGKLIITHVSSRYDDKGCQHLLRECRSIFPATELANDFTVFNV [P0A8V0]”, the “total protein half-life in vivo” value was 4.1 ± 0.62 h under setting [1]; 5.44 ± 1 h under setting [2]; 4.51 ± 0.3 h under setting [3]; 5.43 ± 0.51 h under setting [4]; 3.918 ± 0.011 h under setting [5]; 3.01 ± 0.12 h under setting [6]. Besides, the “total protein half-life in vivo” value by setting is: under setting [7], 5.64 ± 0.69 h; under setting [8], 10 ± 0.64 h; under setting [9], 3.93 ± 0.28 h; under setting [10], 7.42 ± 0.32 h; under setting [11], 5.54 ± 1.4 h; under setting [12], 11.3 ± 2.1 h.
“MSIDWNWGIFLQQAPFGNTTYLGWIWSGFQVTIALSICAWIIAFLVGSFFGILRTVPNRFLSGLGTLYVELFRNVPLIVQFFTWYLVIPELLPEKIGMWFKAELDPNIQFFLSSMLCLGLFTAARVCEQVRAAIQSLPRGQKNAALAMGLTLPQAYRYVLLPNAYRVIVPPMTSEMMNLVKNSAIASTIGLVDMAAQAGKLLDYSAHAWESFTAITLAYVLINAFIMLVMTLVERKVRLPGNMGGK [P0AER3]”: the “total protein half-life in vivo” value under setting [1] is 6.3 ± 0.68 h; the “total protein half-life in vivo” value under setting [2] was found to be 5.73 ± 0.57 h; the “total protein half-life in vivo” value under setting [3] came to 7.02 ± 1.3 h; the “total protein half-life in vivo” value under setting [4] was 6.414 ± 0.029 h; the “total protein half-life in vivo” value under setting [5] was found to be 5.64 ± 0.34 h; the “total protein half-life in vivo” value under setting [6] came out at 3.1 ± 0.078 h. The “total protein half-life in vivo” value stood at 5.71 ± 1.4 h under setting [7]; 12.4 h under setting [8]; 5.35 ± 0.4 h under setting [9]; 12.1 ± 4.6 h under setting [10]; 6.73 h under setting [11]; 12.4 ± 1.9 h under setting [12].

For the origin of these results see the supplement of paper PMC11246515.
